According to US12673985B2, “Method for the treatment or prophylaxis of cancer by targeting the extracellular portion of keratin 14 (KRT14) residing on cancer cells” (Hudson Institute of Medical Research, priority 2019, dated 2026):

B1: rK14: exogenously added, full-length recombinant KRT14 protein (protein)
chain: MTTCSRQFTSSSSMKGSCGIGGGIGGGSSRISSVLAGGSCRAPSTYGGGLSVSSSRFSSGGACGLGGGYGGGFSSSSSSFGSGFGGGYGGGLGAGLGGGFGGGFAGGDGLLVGSEKVTMQNLNDRLASYLDKVRALEEANADLEVKIRDWYQRQRPAEIKDYSPYFKTIEDLRNKILTATVDNANVLLQIDNARLAADDFRTKYETELNLRMSVEADINGLRRVLDELTLARADLEMQIESLKEELAYLKKNHEEEMNALRGQVGGDVNVEMDAAPGVDLSRILNEMRDQYEKMAEKNRKDAEEWFFTKTEELNREVATNSELVQSGKSEISELRRTMQNLEIELQSQLSMKASLENSLEETKGRYCMQLAQIQEMIGSVEEQLAQLRCEMEQQNQEYKILLDVKTRLEQEIATYRRLLEGEDAHLSSSQFSSGSQSSRDVTSSSRQIRTKVMDVHDGKVVSTHEQVLRTKN

How the values were obtained:
[1] = test system: OVCAR4 ovarian cancer cells; test: Real time cell analysis (RTCA) of proliferation with cisplatin and mAb AN-17; type: cell-based, human
Description: Real time cell analysis (RTCA) was conducted as previously described (PMID: 31443478; Bilandzic et al., Cancers (Basel). 2019; 11(9), E1228) using an xCELLigence RTCA SP 96-well instrument (ACEA Biosciences). Cell lines were synchronized in G0 by overnight incubation in serum-free media and were seeded at 0.5×10^3 cells/0.15 ml/per well. […] Impedance readings were taken every 15 minutes for the experimental duration. mAb AN-17 comprises the heavy chain variable region of SEQ ID NO:3 and the light chain variable region of SEQ ID NO:5, encoded by the nucleic acid sequences of SEQ ID NOs:2 and 4, respectively (see also FIGS. 21 and 22A-22B).

ovarian cancer cells = test: Real-time in vitro invasion assay (xCELLigence RTCA) with anti-KRT14 antibodies, rK14 and competing peptides; type: cell-based, human; settings: for restoration of invasive capacity in competition with anti N-terminal KRT14 antibody: competition assay (FIG. 4B, 5B)
Description: xCELLigence Real Time Cell Analyses (RTCA). Real time cell analyses (RTCA) were conducted using an xCELLigence RTCA SP 96-well instrument (ACEA Biosciences). Cell lines were synchronized in Go phase by overnight incubation in serum-free media prior to commencement. For proliferation assays, cells were seeded at 0.5×10^3 cells/0.14 ml/per well (as outlined in the experimental text), and impedance readings taken every 5 minutes for 8 hours (in order to monitor cell adhesion), and subsequently every 15 minutes for 24 hours (to monitor cell proliferation). For invasion assays the upper chamber of a CIM-16 well plate was coated with Matrigel matrix (1:10 in SFM; BD Biosciences, San Jose, CA). Cells were seeded into the upper chamber (as above), with media+/−10% v/v FBS added to the lower chamber. All assays were performed in duplicate or triplicate, with at least three independent experiments.
Using flow cytometry and immunocytochemical staining of intact cells, it was observed that the N terminus of KRT14 is exposed at the cell surface (FIGS. 4A-4B). Consistent with other studies (Papafotiou et al. (2016) supra; Rock et al. (2009) supra), KRT14+ cells represented only a subset of tumor cell population (FIG. 4A). […] Thus, loss of invasive capacity was directly due to binding of the antibody of KRT14. Moreover, this effect is mediated by antibody binding to the N-terminus of KRT14; and the N-terminus was exposed on the external side of cells, accessible to antibody binding.
Antigenicity and hydrophobicity plots were used to examine the first 200 amino acids of KRT14 in silico (FIG. 5A). Five potentially antigenic regions were predicted, and six peptides encompassing to these regions were synthesized for use in further competition assays. Blockade of the N-terminal antibody by peptides #4 and #5 restored invasion (FIG. 5B) and migration (FIG. 5C) of ovarian cancer cells in vitro. […] Based on antibody and peptide competition assays, the surface-exposed region of the KRT14 protein was defined within the amino sequence NH2-[…] (SEQ ID NO:1). […]

| Molecule | cell viability and proliferation ([1]; cisplatin alone at 1.25 μg/ml) | cell viability and proliferation ([1]; cisplatin alone at 15 μg/ml or 20 μg/ml) | invasion by ovarian cancer cells in vitro (ovarian cancer cells; antibody or rK14 added exogenously (FIG. 4B)) | restoration of invasive capacity in competition with anti N-terminal KRT14 antibody (ovarian cancer cells) | restoration of invasive capacity in competition with anti N-terminal KRT14 antibody (ovarian cancer cells; listed as recombinant KRT14 protein) |
| --- | --- | --- | --- | --- | --- |
| N.N.[Cl][Pt][Cl] [cisplatin, reference compound] | sub-lethal and cells continued to proliferate | complete cell death |  |  |  |
| B1 |  |  | had no effect alone | successfully competed with a N-term antibody to restore invasive capacity | could compete for antibody binding, and resorted invasion in vitro |
